# Experimental data as given in patent US6645498.
# Experiments:
# [1] = target: bovine serum albumin (bovine) (UniProt P02769); experiment: ELISA, BSA coated at 5 µg/ml, antibody at 10 µg/ml
# [2] = target: secreted recombinant GA733-2E antigen (human) (UniProt P16422); experiment: ELISA, antigen coated at 5 µg/ml, antibody at 10 µg/ml
# [3] = target: native GA733-2 antigen (human) (UniProt P16422); experiment: as above
# UniProt P02769, sequence (P02769 25-607 limits assumed): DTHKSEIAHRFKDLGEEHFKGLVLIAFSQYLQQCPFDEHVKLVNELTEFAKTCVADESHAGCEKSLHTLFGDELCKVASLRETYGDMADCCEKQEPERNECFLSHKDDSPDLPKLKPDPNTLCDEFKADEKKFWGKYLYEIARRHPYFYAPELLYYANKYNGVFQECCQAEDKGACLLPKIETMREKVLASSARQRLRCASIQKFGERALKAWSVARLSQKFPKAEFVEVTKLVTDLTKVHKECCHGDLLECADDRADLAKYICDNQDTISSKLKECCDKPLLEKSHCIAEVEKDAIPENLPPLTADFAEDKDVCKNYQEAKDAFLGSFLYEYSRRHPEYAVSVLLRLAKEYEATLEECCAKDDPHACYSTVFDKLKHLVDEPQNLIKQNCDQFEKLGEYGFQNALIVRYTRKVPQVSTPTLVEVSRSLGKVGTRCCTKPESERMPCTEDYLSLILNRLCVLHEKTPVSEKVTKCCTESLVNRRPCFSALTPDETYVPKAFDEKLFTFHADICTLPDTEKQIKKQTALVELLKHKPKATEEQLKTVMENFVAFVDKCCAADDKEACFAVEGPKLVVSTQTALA
Maximal optical density (at 405 nm) [1] [OD 405 nm],Maximal optical density (at 405 nm) [2] [OD 405 nm],Maximal optical density (at 405 nm) [3] [OD 405 nm],Substance
0.02,1.3,0.86,murine mAb GA733 (antibody)
0,0,0,Normal mouse IgG (antibody)
